# Literature values as cited in PMC4257090.
# Like-named read-outs stand apart in the source and are kept apart here.
# Tests used:
# [1] = target: SecA (membrane-bound) (Escherichia coli) (UniProt P10408)
# [2] = target: SecA (membrane-bound) (Escherichia coli) (UniProt P10408); remark: listed apart in the source
# [3] = target: SecA (soluble) (Escherichia coli) (UniProt P10408)
substance,measurement,setting,value
SecB (from UniProt P0AG86),Kd,[1],30 nM
same,Kd,[2],10 nM
same,Kd,[3],1500 nM
